Experimental data reported in paper PMC10045489 (2023).

B1: Nb20 nanobody (VHH)
VHH: QVQLVESGGGLVQAGGSLRLSCAVSGAGAHRVGWFRRAPGKEREFVAAIGASGGMTNYLDSVKGRFTISRDNAKNTIYLQMNSLKPQDTAVYYCAARDIETAEYIYWGQGTQVTVSS
B2: ab8 nanobody (VHH)
VHH: QVQLVESGGGLVQPGGSLRLSCAASGFTFDDYAMSWVRQAPGKGLEWIGRMYNNGRTSYNPSLKSLVTISRDNSKNTLYLQMNSLRAEDTATYYCARDNLGYRPSENLYGMDVWGQGTQVTVSS
B3: H11-H4 nanobody (VHH)
VHH: QVQLVESGGGLMQAGGSLRLSCAVSGRTFSTAAMGWFRQAPGKEREFVAAIRWSGGSAYYADSVKGRFTISRDKAKNTVYLQMNSLKYEDTAVYYCAQTHYVSYLLSDYATWPYDYWGQGTQVTVSS

These binders were tested against full-length His-tagged SARS-CoV-2 spike protein (wild-type) (SARS-CoV-2, UniProt P0DTC2) (assay: BLI).
With B1 the Kd was roughly 0.72 nM. B2 was tested, and the Kd was roughly 120 nM. With B3 the Kd was roughly 61 nM.
